# From patent US11370847B2, “Single domain antibodies directed against intracellular antigens” (Singh Biotechnology, LLC, priority 2014, dated 2022)
# Where “and” joins values, the source holds several entries; their conditions need not be identical. Equal values may be shown once.
# Columns and labels:
# [1] = target: T1, active human TNF-α full length protein (Homo sapiens, UniProt P01375); test: TNF-α binding ELISA
# T1 construct: active human TNF-α full length protein; purchased Abcam
# Experimental: In this Example, the binding of anti-TNF-α sdAbs to active human TNF-α full length protein was assessed using an enzyme linked immunosorbent assay (ELISA) format. Additionally, the feasibility of utilizing a secondary antibody targeted to the his tag portion of the sdAbs was assessed.
# The test articles for this study were anti-TNF-α VHH62 (SEQ ID NO:47) sdAb, TNF-α VHH66 (SEQ ID NO:45) sdAb, and anti-TNF-α VHH69 (SEQ ID NO:46) sdAb (Experiment 1).
# For the assays to assess the binding of the sdAbs to TNF-α protein (Experiment 1, 4 and 5), a standard sandwich ELISA format was utilized. […] Plates were incubated overnight at 2-8° C. After the incubation, plates were washed (3×) and blocked (3% Bovine Serum Albumin (BSA) in Phosphate Buffered Saline (PBS)) for at least one hour at room temperature.
# After removal of the blocking buffer and washing (3×), samples were added to the appropriate wells of the ELISA plates and incubated at room temperature with shaking (150 rpm) for at least one hour. The secondary antibody (rabbit anti-llama biotinylated antibody at either a1:5,000 or 10,000 dilution) was then added to each well and incubated with shaking for at least one hour at room temperature.
# After the incubation with secondary antibody, the plates were again washed (3×) and horseradish peroxidase (HRP) at either a 1:25,000 or 1:50,000 dilution was added to each well. Plates were incubated with shaking for at least one hour at room temperature. A final wash (3×) was performed followed by the addition of TMB (Tetramethylbenzidine) substrate. After a 20 to 25 minute incubation at room temperature, stop solution was added to halt the colorimetric reaction. The absorbance at 450 nm was measured on a VersaMax instrument utilizing SoftMax Pro GxP version 5.4 software from Molecular Devices (Sunnyvale, Calif.).
# The final experiment performed was to confirm that the results from the ELISA testing were due to binding to the TNF-α protein and not non-specific binding of the sdAb. For this determination, a comparison was made between wells coated with 0.5 μg/mL of coating antigen and non-coated wells. […] This experiment confirms that the detection seen with the previous experiments was due to the specific binding of the VHH to the coating antigen and not due to non-specific binding.
# [2] = target: T2, TNF-α (Homo sapiens, UniProt P01375); test: Inhibition of TNF-α cytotoxicity against U937 by anti-TNF-α VHHs; format: cell-based; conditions: constant dose of TNF-α at EC50
# T2 construct: purchased Sigma-Aldrich
# T2 sequence (P01375 77-233 limits assumed): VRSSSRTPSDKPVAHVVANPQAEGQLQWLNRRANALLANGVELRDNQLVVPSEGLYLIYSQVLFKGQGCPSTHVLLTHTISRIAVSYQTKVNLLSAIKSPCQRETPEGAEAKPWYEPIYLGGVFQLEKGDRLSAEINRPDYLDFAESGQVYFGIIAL
# Experimental: The concentration of TNF-α required to show measurable modulation of activity in the U937 human […] cell line was evaluated by quantitation of the ATP present, which signals the presence of metabolically active cells using Promega's Cell Titer-Glo® Luminescent Cell Viability assay.
# The U937 cells were seeded in a clear polystyrene 96-well microculture plate (Corning® Costar® 96-well flat bottom plate, Cat. #3997) in a total volume of 90 μL/well. After 24 hours of incubation in a humidified incubator at 37° C. with 5% CO2 and 95% air, 5 μL of 20×, serially diluted TNF-α in growth medium was added to each well in duplicate (10 pt dose response, highest concentration 20 ng/mL). Additionally, 5 μL of 20×, diluted staurosporine in growth medium was added to each well in duplicate (concentration 1 nM).
# After 24 hours of culture in the presence of test agents, the concentration of compound required to show measurable modulation of TNF-α activity in the U937 cell line as evaluated by quantitation of the ATP present. Percent cell growth was calculated relative to untreated control wells. All tests were performed in duplicate at each concentration level.
# The EC50 value for the test agents was estimated using Prism 6.05 by curve-fitting the data using the following four parameter-logistic equation: […]
# [3] = test system: STAT3; test: STAT3 reporter GloResponse SIE-luc2P/HEK293 assay, IL-6 induction; format: cell-based;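 also: SIE-luc2P/HEK293 reporter cells stimulated with IL-6 at 40 ng/mL (EC80) after pretreatment, luciferase luminescence (RLU) read the following day, triplicate wells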
# [4] = test system: SIE-luc2P/HEK293 cells; test: BCA protein concentration of reporter cells; format: cell-based
# [5] = test system: rabbit anti-llama biotinylated antibody or his-probe (H-3) biotin labeled antibody; test: ELISA of secondary antibody binding to coated sdAbs; conditions: Experiment 3, sdAb coated at 1 μg/mL, stored 1:100 dilution
# Experimental: Two assays (Experiment 2 and 3) were performed to assess the binding of the secondary antibody to the sdAbs. A similar ELISA method was utilized except the sdAbs were directly coated onto the assay plate at a concentration of 1 μg/mL. Plates were incubated overnight at 2-8° C. After the incubation, plates were washed (3×) and blocked (3% BSA in PBS) for at least one hour at room temperature.
# After removal of the blocking buffer and washing (3×), the secondary antibodies, either rabbit anti-llama biotinylated antibody or his-probe (H-3) biotin labeled antibody at was then added at a 1:5,000 dilution to each well and incubated with shaking for at least one hour at room temperature. Only the rabbit anti-llama biotinylated antibody was used in Experiment 2. Both antibodies were run in parallel in Experiment 3.
# After the incubation with secondary antibody, the plates were again washed (3×) and HRP at a 1:50,000 dilution was added to each well. Plates were incubated with shaking for at least one hour at room temperature. One last wash (3×) was performed followed by the addition of TMB substrate and plates were incubated at room temperature. For the anti-llama biotinylated antibody stop solution was added to halt the colorimetric reaction at 10 minutes. The his-probe (H-3) biotin labeled antibody was allowed to incubate for 20 minutes prior to stopping. The absorbance at 450 nm was measured as before.
# [6] = 24 Hour Treatment Prior to IL6 Induction, higher conc.: VHH13 55.8 μg/mL, VHH14 84.3 μg/mL, BB1608 4.16 μM, VHH69 50.5 μg/mL
# [7] = 24 Hour Treatment Prior to IL6 Induction, lower conc.: VHH13, VHH14, VHH69 10 μg/mL, BB1608 2 μM
# [8] = 48 Hour Treatment Prior to IL6 Induction, higher conc.: VHH13 55.8 μg/mL, VHH14 84.3 μg/mL, BB1608 4.16 μM, VHH69 50.5 μg/mL
# [9] = 48 Hour Treatment Prior to IL6 Induction, lower conc.: VHH13, VHH14, VHH69 10 μg/mL, BB1608 2 μM
# T1 sequence (P01375 77-233 limits assumed): as above
molecule,measurement,setting,value
"anti-TNF-α VHH69: anti-TNF-α sdAb, SEQ ID NO:46 (protein, Camelid) VHH: EVQLVESGGGSVLAGGSLRLSCVASGFTSRYNYMAWFRQAPGKEREGVATIGTASGSADYYGSVKDRFTISQDNAKNTVYLQMNSLKPEDTAMYYCAARTYGTISLTPSDYRYWGQGTLVTVSS",detection in coated versus non-coated wells,"[1]; 0.5 μg/mL coating antigen, sdAb at 1 μg/mL",detected in coated wells but not in non-coated wells
same,detection in TNF-α ELISA,"[1]; Experiment 1, 1 μg/mL sdAb",little to no detection
same,OD450 Values,"[1]; Non-Coated wells (non-specific binding), sdAb 1 μg/mL",0.007
same,inhibition of TNF-α killing of U937,[2],inhibit killing of U937 by TNF-α
same,Average RLU,[3]; [6],198596 RLU
same,Average RLU with Media Blank,[3]; [6],198571 RLU
same,Fold-Induction RLU/RLU of −IL6,[3]; [6],434
same,Luminescence (replicate wells),[3]; [6],203139 RLU and 194320 RLU and 198330 RLU
same,Average RLU,[3]; [7],169752 RLU
same,Average RLU with Media Blank,[3]; [7],169726 RLU
same,Fold-Induction RLU/RLU of −IL6,[3]; [7],371
same,Luminescence (replicate wells),[3]; [7],159115 RLU and 184364 RLU and 165776 RLU
same,effect on IL-6 induction of the STAT3 reporter,"[3]; 24 and 48 hours treatment, VHH13 and VHH69 at highest concentration, VHH14 at both concentrations",enhancement of the IL-6 induction
same,Average RLU,[3]; [8],225726 RLU
same,Average RLU with Media Blank,[3]; [8],225694 RLU
same,Fold-Induction RLU/RLU of −IL6,[3]; [8],452
same,Luminescence (replicate wells),[3]; [8],219104 RLU and 237816 RLU and 220259 RLU
same,Average RLU,[3]; [9],172988 RLU
same,Average RLU with Media Blank,[3]; [9],172955 RLU
same,Fold-Induction RLU/RLU of −IL6,[3]; [9],347
same,Luminescence (replicate wells),[3]; [9],155927 RLU and 191241 RLU and 171796 RLU
same,Protein concentration,[4]; [6],213
same,Protein concentration,[4]; [7],237
same,Protein concentration,[4]; [9],222
same,OD450 Values,[5]; His-probe (H-3),0.153
same,OD450 Values,[5]; Rabbit anti-Llama Secondary Antibody,0.443
